Assay results: patent publication US20260137781A1 (University of California, published 2026)

Experiments:
[1] = molecular target: T1, recombinant Itgβ2 (Integrin beta-2 complex, alpha chain not stated for this result); assay: BLI (Octet), antibody captured on AHQ biosensors, Integrin beta-2 complex in solution, 1:1 fit
T1 construct: Bought R&D Systems heterodimer; also called Integrin-beta 2 complexes
Experimental: (§1) To determine the binding kinetic parameters of the antibodies, BLI experiments were performed on an Octet HTX instrument (Sartorius) at 1000 rpm and 25° C. All proteins were diluted in an assay buffer (PBS, 1% BSA, 0.05% Tween 20). Test and control antibodies at a concentration of 2 μg/ml were first captured on AHQ biosensors to achieve the binding signals of 0.8-1.3 nm. Unoccupied Fc-binding sites on the antibody-coated sensors were subsequently quenched by 20 μg/mL of the Fc protein. After equilibration with the assay buffer, the biosensors were then dipped for 600 s into wells containing 5-fold serial dilution of Integrin-beta 2 complexes (association phase), followed by a transfer back into an assay buffer for additional 600 s (dissociation phase). Assay buffer alone served as a negative control. Binding response data were reference subtracted and were globally fitted with 1:1 binding model using ForteBio's Octet Systems software 9.0.

[2] = molecular target: Integrin beta-2/Integrin alpha-M recombinant protein complex (R and D 4047-AM) (UniProt P11215 17-1105); assay: phage display selection on immobilised complex, clones evaluated by phage ELISA
Experimental: Briefly, Integrin-beta-2 recombinant protein complexes were immobilized on Maxisorp Immuno plates (ThermoFisher, #12-565-135) and used for positive binding selections with library phage pools that were first exposed to neutravidin coated wells to deplete nonspecific binders. After four rounds of binding selections, clonal phage was prepared and evaluated by phage ELISA and sequencing as described (PMID: 23219464).

[3] = molecular target: T2, Integrin beta-2/Integrin alpha-L recombinant protein complex (R and D 3868-AV) (UniProt P20701 26-1090); assay: BLI (Octet), antibody captured on AHQ biosensor, integrin complex in solution at 300/60/12 nM; the legend paragraph 15 names Itgal/Itgb2 as the antigen
T2 construct: Bought complex; also called Itgal/Itgβ2; ItgaL/Itgβ2
Experimental: as §1

Kd [1]: 1.56 nM | binding result [2]: binds | binding result [3]: binds
B1: Antibody D3-7065 (antibody, V domains shown)
VH: EVQLVESGGGLVQPGGSLRLSCAASGFTISYYYMHWVRQAPGKGLEWVASISSSSGYTYYADSVKGRFTISADTSKNTAYLQMNSLRAEDTAVYYCARGAMDYWGQGTLVTVSS
VL: DIQMTQSPSSLSASVGDRVTITCRASQSVSSAVAWYQQKPGKAPKLLIYSASSLYSGVPSRFSGSRSGTDFTLTISSLQPEDFATYYCQQFSSGSWAPITFGQGTKVEIK
notes: It was purified on protein A and captured on AHQ biosensors for BLI
